The domain aggregation screens of Martell et al. (2025)

Assay: soluble fraction after stress (log2 fold change); higher = more stays soluble; pooled small domains, quantitative proteomics
Details: stress: 75 degC
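Note: 20 min heating vs room temperature control held 20 min.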

Sequence | soluble fraction (log2)
HMTPVTYELTVQSGAGQRIDKYLSEQLADLTRSYLQKLLKDGGVTVNGKTVKSNYKLSENDQIFLEVPDA | 0.0544
HMTPVYLNARQKQILAFLKREEPAKVGDIAHALKTISINTLKKDLLYLRQKNLIESHGVLKGTIYTVK | -1.6
HMTQEFIVPKVTGYTVEDAMNLSGVKDVFEITVDSTEKSDQPAGIILFQDPKDGSSRKSDLVIHVVVSAGS | -0.363
HMTQEQKQQISDQLRAYVEQKGSGNKAAASMNGVSSATISKVLAGKWETISEDMWRSIAAQTGH | 0.325
HMTQFSLTTEEINVLKKSYSEFTDSDKELFNKILEKYNKFKNESSNDIAFEAKILEKLQEIENFYE | -0.00344
HMTQMSVLFSELEAKDAATIADKLRERNIPYELSNNGSTILIPQEVLHDTRLSLASEGLPES | 0.0765
HMTQPAEINRLVEQMGSSDYKSRQEAYERLHQMGPGILDLIYPYRNHADPEIQTRVRELILSYRW | -0.0738
HMTQQNRDELYRRMIDAGWDQLVRNGIRSLRVEQVAAAVGIAKGTFYHFFDSKDDFIYAMLMENRQ | -3.41
HMTQSPLHWSHRPIDLSELLTYLDRDGAFVYASGHKAPFTEVVRGFEHLLNIRLGDPRDVKRSVLQR | -0.109
HMTQTGEVIRWDAERGFGFIATADGRRHVFFHVRDFRGGAAPGVGLRVGFEEIQVGGKGPRAMDVRPL | -1.28
HMTRDGMTKEAFDSLLEDIMNILLDNGLKATTMGSIAKSLKMSKRTLYEIFSSKSQMVEEAIIASHTKMM | 0.214
HMTREAILDTAEELLQRRGYNAFSYHHIAVQLGIRNAAIHYHFPAKEDLGIELVSRFRIRLAE | -0.28
HMTRLSSREAQVISLVRDGMTNQQIAERLELSPLTIKNHVQNILRKLDVSNRAQAVAKAVKARLI | -0.774
HMTRRGPLTEGDRVQVRDPKGRFHQVILVRGGRFQSNRGGFNHDDVIGRPDGQVIITDEGRQFQIL | 0.493
HMTRYEQLAAQIRQQIEDNIWQSGDRLPSLRDTVKQSGLSLMTVLQSYQLLESQGWITARPQSGYYVAHR | 0.284
HMTSGTLTLTQDTPVYTEPNKDGGVAYVQPQGDIQWDKYIFANGDNWYSFVQKNRDQEVRFYIAYSDVG | -0.561
HMTSHSFVITEEVGQRLDRFISDQLDTVSRTMIQKHIRSGAVVVNGKQVKSNYLLVLNDRINIALK | -2.75
HMTSISMDEKVVLGWHQVTTGAANSGMDKVVSNTSGLNVISPTWFKLSDNKGNYISIASKDYVDAAHKKGL | -0.108
HMTSKTLSADGGENTRLDKFLSNHLPEISRTKIQKMINDGLVYVNQNYAKASLVLDGTELISYTIPD | -0.0211
HMTSLTDDELSVVMLVREREISFDEITSETGFDAARLNSVLTMLKIKGIIDETTGKHYRISGGA | -1.01
HMTSLVRTSNLDGFEPLARSIGVDPVMELMRFGIPPDALIRENMFISFIGFIRLLEHTALAG | 0.364
HMTSMYYLNKAVKEGNAKAIRQLLSAGININVRKRETSTPLDFAIKYKQTEIADLLRKHGGKTAEELKAEE | -0.668
HMTSNEKARNAASAERRADIVAAARELYEEQGLSKTSVQDITNRMGVARSLFYHYFPDKEAVTSAVLDDYV | 0.0232
HMTSPELIELGERIRKRRQEMNLSQEALAEKAGISINTVSRVEGGQTAMSIEIFRKMIEILETDANGL | -0.586

Sequence | soluble fraction (log2)
HMTSRIHDYWTSPGQPGYAKIGWGTAGDFRRAKALIGEKIAANSPEDMRYLNQIIAQWHFDALGYWPGDH | -3
HMTSRLLTPRQRYVFDTAMKEGFYDVPRRITLTELASVLDVAKSTLSAQLHRIESTVHHAYADDIRRRS | -2.55
HMTSSQLNIEELERRMMMHLEQNGFITRSIYTNLTGRLKWKATEDLKIFVEKGLIRKMGRGNQMYYVKVE | -1.74
HMTSSQRDSILEFLKTRKDHPTADVVYMNVRKSFPNISLGTVYRNLTLLSDIGQIAKIRVGDGVDHFDADT | -0.505
HMTSSSGTITADWLNVRSGAGTNFSRLGSIAGGTRLTVISVHGEWYKITASFEGEIRTGYVHSQYVQMDGE | -3.87
HMTSTEQQIEQFIGTLVSLGGSAGNQRLLEALGWQDSIYQRVKQQLIDDGRIRPGRGRGGSVVLAE | -0.576
HMTSVAGIERFLASGAIKGMGAATAKLIVEHFGADTLNMLDMYPERLTEIKGIGPKKATAIIEGYRELS | -0.897
HMTSVMAWRLITPIPQHGIIRSSQVQLQKHAPNSLKFLDVDSSPVGKQVKHGIAAGHWLSKDDFTE | -1.05
HMTTAASIGRLVRDARKQRGLTQHELASLLSTSQSAIHRIESGNQNLSLEMINRIAQALESPLIVPGG | -0.377
HMTTIRQQAEVPLSAAGRRFDQALAEMFPAYSRSRLSGWIKAGAATLDGAPAAPRQLLRGGERVELDVELE | -0.166
HMTTKGGLVRDTVLNEFRDSEFTRREVELVLNGVASERTIRGALSEMVERGELTQVNFGISTRYRLNQ | -0.563
HMTTLEGIEKYLGSGMIRGIGPAYAGRLTKVFGEAVFDVIEQSPERLREVEGIGPKRVSRIVSGWAEQ | -0.31
HMTTLLNHLKGTRLEAGLSQQALARLAGISRQAYSALESGSSNPSTEVALRLARALKTSVDHLFSLPE | -1.09
HMTTQVPYTAKLININGGSVVNFRKEPGMNTTIIRTYPVGTEVTVLETGVNWSKVEIDGVTGYVSSYFL | -2.33
HMTTRLLTPRQRQVFDIAIREGFYDSPRRISLTELADLLGVAKSTLSVQLQRVESTIVHTFSEEIRRRS | -2.66
HMTTRQREALLDYLSRHPDQPLTVREIAAGVEPDGVSLSAVYRNLAELEAAGLIRRESRPGSREAVVQYV | -0.0192
HMTTTTTYITNTDAVNIRQQATTSSTSLGKLAKNTILSVKKKSGDWYQITYKKQTAYIHASLVDKKTAKVT | -1.62
HMTTVDYDALRAAILQQVVSEDTTPALTTENTEIKYKFKFGLDTWVDLDGGKIAPAVSAKSYEIQISFKG | 0.185
HMTTYVNGSWSGWNGSTVVKLTDGSVWRQAEYHYEYHYAYRPQARLERDELFVEGMSRGVRV | -0.0587
HMTVADMQQKANVKRRNSNSHEAILDATVKLLGSSGYIDFSIEKVASQAGVGKQTIYRWWPSRADLVLEVW | -0.506
HMTVAEVEDRMEASRVRQALDAVGEPHRTTIALAYFTGLTHTEIAQRMGVPLGTVKSRIRDGMAKMRTHLG | -1.24
HMTVDHDERRSMILEAFMRLAAREGLHAVSLRGVAAEAGISLRLVQYYFETKARLMQSGLTALET | -0.141
HMTVKKLIINEDNSGRRIDNYLLSIFNSVPRSKIYNIIRKGEVRVNSSRIKPSYRLEEGDQVRIPPNLDYT | -1.05
HMTVKRNILQELLKTAFKHPEDFRPSKTFYGETGIGQKRFWALYYGHKAVTQKEYYAVADYLG | -0.0737

Sequence | soluble fraction (log2)
HMTVLDYNENVLSKVMNAAEINDSDKEAFIAFAKDYNSDDNLYLKKEELETAAGAWNARNVE | 0.2
HMTVLTDEIKVILISYIKENDFKKKHGNRKMMMTAQDMYDELVEKGYKISYPTVTQYVQKYRENETT | -1.63
HMTVMTGSQRRKKILELMRDAKEPLSGGALGKETGVSRHVVVQDIALLRTQGYPIVATARGYIINE | -1.32
HMTVRLSVSADGKFFWNESQVSEEELFPRLQAEAAKEPQPDLHIRGDKNVRYEFVAQAMAAAQRAGVRKI | -0.797
HMTVSADQTAADAVIKLINAIGTVSENSGSAISAARSGYDALTDTQKKLVTNYNKLTQAEQVFSSLPS | 0.336
HMTVSGNIAGDYKDYLPQKTDVINGMTVTYRMVDDAVYLASWKHAGQNHVFLFNDPVSVERAREMI | -0.556
HMTVSIDSLFDKFEDLQEQGLGDKTEEGQELRGLIRAFIEQEHLSVRITRSTSNQELLDMIEEAMQ | -1.25
HMTVSRRYTENEMETALKAYLATHNFISRRDMQQEFALTIYSARKWLNHFVDVGLIERIGLKNAPIYKL | -0.0893
HMTVTKYGKKILEIVSSSRSHMTAEEIFDALRQTYPTVVLATVYNNLNRLWQDDLIRKVSVEGMPDRYD | -1.28
HMTVVPNIVNQPEAAGTNLLISSNLKPGNRAVQYSDTVKAGDIISQSPEPGAQATLGGKVDYVISQGPAPT | 0.174
HMTWIAEIELRLMGNGAVTGAKIVKSTDLKDVDAAIYRAALEASPYPAPESGIGGRFTIKLKY | -0.037
HMTYLIKFDENGRRSDTYVAEEKTQEQVTELLEKGFVLITEEDYQLLVGNVDGKEYIRNADGTYSEYT | 0.563
HMTYMWTTDGVNLRSEPNTDSAVVTVLGVGTQVRMIGEEDGWVKVSFNDQEGYIRADFLTTE | -0.198
HMTYSAFITARNKRIAEEYSVLLDSLNISNNVIYRLGSWVVEVNVSDHSRAIDEIYSYERSGRIDKV | -3.1
HMTYYEGYYRKNQKGFGFVIVDGRDEDIYIDAKNMNGALNNDLVVVEELKGQNGKKTEGRVVKVLKKE | -0.17
HMVADLSGVGDKDIIVDQFIYHEVLPKETIYSIVKSFNVTSEDLNKNNPFLRANGLRIGQVIRIPLKI | -1.27
HMVAEPTYGRTTDVLNIRSGPSTDDERIGQLSRGAVVTILEEKDGWYRLQRGYISADYVTQISAEEASNS | -0.0612
HMVAEPVYGKVTEGPLNVRSAPSTDSEKVDSFSTGKVLTILETLDGWYKVEEGYVSADYVTIIDAAEAASS | -0.162
HMVAGHLSEKKGYYYAVLNYKDYTGKRKSKWVSTGLPVKGNKRRAEKILADIKRDFVPEEPKR | -0.96
HMVAGQDPVKRQQILDGAKRVFLGVGFDAASMNDITREAGVSKGTIYVYFGSKEELFGALIDR | -0.828
HMVAMLDASYRGVMQTISTLLAQGNTERAYDEAVNARGQMSKQQWNNLANLIWERTGQKIDSGVSYK | 0.367
HMVDEAQSLERNVLLTVLSRIGRDSRVVLTHDIAQRDNLRVGRHDGVVAVVDRLKGHPLFAHVTL | 0.163
